# Assay results: patent publication US20250027068
# Biological target: pooled human IgG (human IgG1, 2, 3 and 4)
Protein,Enzyme Activity Endpoint Assay (purified): Fab′2 [ng/µL],Enzyme Activity Endpoint Assay (purified): Fc [ng/µL],Enzyme Activity Endpoint Assay (purified): IgG [ng/µL],Enzyme Activity Endpoint Assay (purified): scIgG [ng/µL],Enzyme Activity Endpoint Assay: Fab′2 [ng/µL],Enzyme Activity Endpoint Assay: Fc [ng/µL],Enzyme Activity Endpoint Assay: IgG [ng/µL],Enzyme Activity Endpoint Assay: scIgG [ng/µL]
PRT-413 (protein) MTITSVWTKGVTPPTPEDFRENNEDVLHAPYVANQGWYDITKTFDGKDNLLCGAATAGNMLHWWFDQNKEEIERYLKKHPEKQKIIFNNQELFDVKAAIDTKDSQTNSKLFNYFRDKAFPNLSARQLGVMPDLVLDMFINGYYLNLGKTQSTDVNRPYQDKDKRGGIFDAVFTRGDQTTLLTARHDLKNKGLNEISDLIKQELTEGKALALSHTYANVRINHVINLWGADFDAEGNLIAIYVTDSDANASIGMKKYFVGVNANGKVAISAKKIEGDNIGAQVLGLFTLSTGQDIWQKLS,485,347,14,152,–,–,–,–
PRT-429 (protein) MTITSVWTKGVTPPTPEDFRYNNEDVLHAPYVANQGWYDITKTFDGKDNLLCGAATAGNMLHWWFDQNKEEIERYLKKHPEKQKIIFNNQELFDVKAAIDTKDSQTNSKLFNYFRDKAFPNLSARQLGVMPDLVLDMFINGYYLNLGKTQSTDVNRPYQDKDKRGGIFDAVFTRGDQTTLLTARHDLKNKGLNEISDLIKQELTEGKALALSHTYANVRINHVINLWGADFDAEGNLIAIYVTDSDARASIGMKKYFVGVNANGKVAISAKKIEGDNIGAQVLGLFTLSTGQDIWQKLS,528,348,57,171,–,–,–,–
PRT-421 (protein) MTITSVWTKGVTPPTPEDFRYNNEDVLHAPYVANQGWYDITKTFDGKDNLLCGAATAGNMLHWWFDQNKEEIERYLKKHPEKQKIIFNNQELFDVKAAIDTKDSQTNSKLFDYFRDKAFPNLSARQLGVMPDLVLDMFINGYYLNLGKTQSTDVNRPYQDKDKRGGIFDAVFTRGDQTTLLTARHDLKNKGLNEISDLIKQELTEGKALALSHTYANVRINHVINLWGADFDAEGNLIAIYVTDSDANASIGMKKYFVGVNANGKVAISAKKIEGDNIGAQVLGLFTLSTGQDIWQKLS,612,340,71,0,–,–,–,–
PRT-382 (protein) MVTSVWTKGVTPPTNFTYGEDVLHAPYVANQGWYDITKTFNGKDDLLCGAATAGNMLHWWFDQNKEQIENYLKKHPEKQKINFNGEQMFDVKEAIDTKDSQLDSKLFEYFKEKAFPYLSTKHLGVFPDHVIDMFINGYRLSLTNHGPTPVKRGSKDPRGGIFDAVFTRGDQSKLLTNRHDFKEKTLKEISDLIKQELTEGKALGISHTYANVRINHVINLWGADFDAEGNLEAIYVTDSDSNASIGMKKYVVGVNSNGKVAISAKEIEEDNIGAQVLGLFTLSTGQDIWNQTN,585,380,0,226,–,–,–,–
PRT-390 (protein) MVTSVWTKGVTPPTNFTYGEDVLHAPYVANQGWYDITKTFNGKDDLLCGAATAGNMLHWWFDQNKEQIENYLKKHPEKQKINFNGEQLFDVKEAIDTKDSQLDSKLFEYFKEKAFPYLSTKHLGVFPDHVIDMFINGYRLSLTNHGPTPVKRGSKDPRGGIFDAVFTRGDQSKLLTNRHDFKEKTLKEISDLIKQELTEGKALGISHTYANVRINHVINLWGADFDAEGNLEAIYVTDSDSNASIGMKKYFVGVNSNGKVAISAKEIEEDNIGAQVLGLFTLSTGQDIWNQTN,578,371,0,227,578,371,0,227
